This experiment deals with His6-tagged CNA (isoform not told) (UniProt P16298 1-524). The experiment can be described thus: SPR.

No end group written: not given here. *: point of attachment. Biotin = O=C1N[C@H]2[C@H](CS[C@H]2CCCCC(=O)*)N1

The results in this text go back to paper PMC9166766 (2022).

B1: biotin-labeled CABIN1-L-1 peptide (peptide)
peptide: Biotin-AAAMAGFPPEITVTPPTP
B1: the Kd (in general, the equilibrium constant for the complex coming apart) is 512 nM.
